Laboratory results as given in patent US20050244406A1 (G2 THERAPIES, published 2005).
Residue numbers refer to the chain shown, from its start.

T1: human C5aR (human, UniProt P21730 1-350)
T1 chain: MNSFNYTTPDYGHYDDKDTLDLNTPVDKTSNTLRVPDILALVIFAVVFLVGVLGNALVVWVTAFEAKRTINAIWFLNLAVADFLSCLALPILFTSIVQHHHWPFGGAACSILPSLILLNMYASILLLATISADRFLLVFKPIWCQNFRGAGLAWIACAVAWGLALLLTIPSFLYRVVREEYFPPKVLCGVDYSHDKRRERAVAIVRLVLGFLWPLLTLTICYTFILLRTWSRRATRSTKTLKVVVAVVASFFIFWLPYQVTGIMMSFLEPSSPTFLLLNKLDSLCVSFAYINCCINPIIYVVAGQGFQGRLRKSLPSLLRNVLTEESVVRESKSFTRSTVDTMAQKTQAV

T2: C5aR N-terminal peptide (residues 9-29), PEPI (human)
T2 construct: Synthetic peptide (Biosource), residues 9-29 of C5aR; also called C5aR N-terminal peptide 9-29
T2 peptide: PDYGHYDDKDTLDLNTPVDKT

T3: CX3CR1 (V28) (UniProt P49238 1-355, limits assumed)
T3 construct: whole, on cells; also called L1.2 V28
T3 sequence (looked up): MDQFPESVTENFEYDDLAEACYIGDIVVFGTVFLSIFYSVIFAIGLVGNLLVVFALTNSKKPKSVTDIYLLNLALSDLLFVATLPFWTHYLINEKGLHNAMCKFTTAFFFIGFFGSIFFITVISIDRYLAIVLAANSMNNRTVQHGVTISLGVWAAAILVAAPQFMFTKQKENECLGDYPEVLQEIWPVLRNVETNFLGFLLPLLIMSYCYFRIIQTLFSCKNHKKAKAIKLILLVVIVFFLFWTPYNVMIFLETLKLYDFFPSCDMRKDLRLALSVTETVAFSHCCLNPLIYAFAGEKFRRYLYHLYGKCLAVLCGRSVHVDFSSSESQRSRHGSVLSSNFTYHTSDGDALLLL

T4: CXCR2 (UniProt P25025 1-360, limits assumed)
T4 construct: whole, on cells; also called L1.2CXCR2
T4 sequence (looked up): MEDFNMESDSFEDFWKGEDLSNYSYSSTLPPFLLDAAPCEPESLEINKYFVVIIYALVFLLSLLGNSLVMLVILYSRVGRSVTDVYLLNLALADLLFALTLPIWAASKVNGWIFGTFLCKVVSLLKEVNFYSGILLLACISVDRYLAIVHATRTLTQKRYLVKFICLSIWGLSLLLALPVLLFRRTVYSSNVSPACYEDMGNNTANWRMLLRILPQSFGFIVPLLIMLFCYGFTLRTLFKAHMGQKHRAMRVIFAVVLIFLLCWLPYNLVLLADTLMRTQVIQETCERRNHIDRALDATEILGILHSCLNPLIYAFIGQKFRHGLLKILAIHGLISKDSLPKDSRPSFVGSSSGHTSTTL

B1: MAb 7F3 (antibody, V domains shown)
VH: QVQLQQSGPELVKPGASVKISCKASGYAFSNSWMNWVKQRPGKGLEWIGRIYPGDGDTKYNGKFKGKATLTADKSSSTAYMQLSSLTSEDSAVYFCARFLLISTVTAVDYWGQGTTLTVSS
VL: DVVMTQSPLSLPVSLGNQASISCRSSQSLVHSNGNTYLHWYLQKPGQSPKLLIYKVSNRFSGVPDRFSGSGSGTDFSLKISRVEAEDLGVYFCSQSTLVPLTFGAGTKLELK
notes: Murine monoclonal antibody from hybridoma ECACC 00110609; also called monoclonal antibody 7F3
B2: MAb 12D4 (antibody, IgG3, V domains shown)
VH: QVQLKESGPGLVAPSQSLSITCTVSGFSLTSYGVDWVRQSPGKGLEWLGVIWGVGSTNYNSALKSRLSISKDNSKSQVFLKMNSLQTDDAAMYYCASHYGYDGLGFAYWGQGTLVTVSV
VL: B1 VL with S7T, N17D, N33S, D75H, S77T, V90I, L101P, A105G, L111I
notes: Murine monoclonal antibody from hybridoma ECACC 02090227; also called 12D4-P9
B3: MAb 6C12 (antibody, IgG3, V domains shown)
VH: QVQLQQSGPEVVKPGASVKISCKASGYAFSRSWMNWVKQRPGKGLEWIGRIDAGDGDTKYNGKFKGKATLTADKSSSTAYMQLSSLTSEDSAVYFCASLLITTVVGAMDYWGQGTSVTVSS
VL: B1 VL with S7I, N17D, A19T, V30I, S77T, L88M, L98H, L101P, A105G, L111I
notes: Murine monoclonal antibody from hybridoma ECACC 02090226; also called 6C12 M12

Legend:
[1] = target: T1, human C5aR; assay: cell-based or functional assay
[2] = target: T2, C5aR N-terminal peptide (residues …); assay: ELISA, PEPI coated at 1 µg/ml
Method: ELISAs were performed as described in Current Protocols in Immunology (Unit 2.1) (Edited by J. F. Coligan, A. M. Kruisbeek, D. B. Margulies, E. M. Shevach and W. Strober), John Wiley and Sons, New York. Briefly, 96-well flat bottom ELISA plates (Maxisorp; Nunc) were coated with 1 μg/ml protein (PEPI or OPG) in PBS at 37° C. for 1 hr, then blocked with BSA at 4° C. overnight. The plates were then washed, incubated with antibodies, washed and incubated with peroxidase-conjugated sheep anti-mouse IgG antibody. The substrate used was TMB substrate reagent (PharMingen).
ELISA assays were performed as described above to measure the reactivity of MAbs 6C12, 12D4, 7F3, with PEPI and OPG. OPG is a member of the TNF-receptor superfamily which binds specifically to its ligand TNFSF11/OPGL. More specifically, OPG is an osteoblast-secreted decoy receptor that functions as a negative regulator of bone resorption.
MAbs 6C12, 12D4 and 7F3 were used in the ELISA as purified proteins at a concentration of 1 μg/mL. MAb 9C1 (which is specific for OPG) and MAb 11B9 (which recognises PEPI) were used as positive controls. These control MAbs were used in the form of undiluted tissue culture supernatant.

[3] = target: T3, CX3CR1 (V28); assay: flow cytometry on transfected L1.2 cells
[4] = target: T4, CXCR2; assay: flow cytometry on transfected L1.2 cells
[5] = target: T1, human C5aR; assay: flow cytometry on L1.2 C5aR transfectants
[6] = target: T1, human C5aR; assay: flow cytometry on L1.2 cells with human C5aR, MAb 50 ug/ml, with PEPI 1-100 µM
Method: Anti-C5aR MAbs were added at 50 ug/ml, to a C5aR N-terminal synthetically produced peptide (residues 9-29) known as “PEPI” (Biosource; Eldridge) at concentrations ranging from 1 to 100 μM. Mouse L1.2 cells transfected with human C5a receptor and resuspended in 1% bovine serine albumin (BSA; GibcoBRL) (1×10^7/ml) were then added to give a total volume of 100 μl. The cells were incubated for 30 min at 4° C. and washed once with 0.1% BSA. Fluorescein (FITC) conjugated, sheep anti-mouse IgG, F(ab′)2 (Jackson Immunoresearch Laboratories Inc.) was used as a secondary Ab (1:200) and incubated for 15 min at 4° C., followed by an additional washing step with 0.1% BSA The cells were resuspended in 0.1% BSA and analysed by flow cytometry.

| Binder | neutrophil migration towards C5a [1] | binding result [2] | binding result [3] | binding result [4] | binding result [5] | binding result [6] |
| --- | --- | --- | --- | --- | --- | --- |
| B1 | 140 fold reduction | no binding (tested: 1 µg/mL) | no binding | no binding |  |  |
| B2 |  | no binding (tested: 1 µg/mL) | no binding | no binding | binds |  |
| B3 |  | no binding (tested: 1 µg/mL) | no binding | no binding |  | binds |
